For 167 variants, abundance fitness results are on record in the Human Domainome abundance scans (Beltran et al. 2025).

B1: Death-inducer obliterator 1, residues 263 to 321; numbered along this chain, Q9BTC0 (parent)
chain: GYDPNALYCICRQPHNNRFMICCDRCEEWFHGDCVGISEARGRLLERNGEDYICPNCTI
B2: Homeobox protein SIX6, residues 134 to 184; numbered along this chain, O95475 (parent)
chain: CFKERTRHLLREWYLQDPYPNPSKKRELAQATGLTPTQVGNWFKNRRQRDR

± gives the uncertainty stated by the source.

One series covers variants of B1. Briefly: abundance fitness (aPCA) (normalised: wild type 0, dead -1); higher = more abundant; growth selection in yeast, the domain comes from the species named. Conditions: Homo sapiens.
Consider C11S, for which the abundance fitness is -0.92 ± 0.12.

In the case of C11F, the abundance fitness is -0.724 ± 0.28.

Take C11E: the abundance fitness is -0.622 ± 0.093. In the case of E39A, the abundance fitness was -0.262 ± 0.066. For E39R, the abundance fitness is -0.037 ± 0.074. On the same count and under the same terms, under E39S stands -0.061 ± 0.066; under A6E, -0.328 ± 0.21; under S38I, 0.155 ± 0.13. The same measure, in the same setting: under L44W stands -0.015 ± 0.075; under L44T, -0.069 ± 0.11; under L44S, 0.021 ± 0.056. Same read-out and setting: under L44V stands -0.045 ± 0.062; under G49K, 0.163 ± 0.16; under G49N, 0.11 ± 0.16. Regarding A40H, the abundance fitness was -0.182 ± 0.25. The same measure, in the same setting: the value for A40S was -0.022 ± 0.084; that for A40R was -0.205 ± 0.093; that for I37M was -0.208 ± 0.11.

Take F30N: the abundance fitness is -0.013 ± 0.087. On the same count and under the same terms, under F30V stands -0.327 ± 0.12; under F30A, -0.283 ± 0.086. Still for that read-out and setting: the value for V35N was -0.171 ± 0.099; that for V35G was -0.333 ± 0.083.

With I53P, the abundance fitness was -0.419 ± 0.14. With I53Y, the abundance fitness worked out at 0.149 ± 0.21. The same measure, in the same setting: under R25E stands 0.163 ± 0.13; under R25W, -0.261 ± 0.1.

R25C: the abundance fitness is -0.191 ± 0.1. Same read-out and setting: the value for R25M was -0.023 ± 0.054; that for R25G was -0.085 ± 0.075; that for R25S was -0.019 ± 0.043. Turning to C57L, the abundance fitness is -0.705 ± 0.12. On the same count and under the same terms, under C57G stands -1.12 ± 0.29; under P4R, 0.076 ± 0.062; under P4H, -0.062 ± 0.25. As to P4C, the abundance fitness came out at 0.063 ± 0.084. The same measure, in the same setting: the value for R18K was 0.009 ± 0.082. On the same count and under the same terms, under R18Q stands 0.042 ± 0.092; under R47L, 0.079 ± 0.071. Same read-out and setting: the value for R47F was -0.204 ± 0.11.

R47I: the abundance fitness came out at 0.058 ± 0.092. Still for that read-out and setting: under D33S stands -0.048 ± 0.059; under N56W, -0.002 ± 0.083; under N56P, -0.121 ± 0.096. The same measure, in the same setting: the value for N56S was 0.122 ± 0.071. Regarding D3Y, the abundance fitness amounted to 0.002 ± 0.069. Still for that read-out and setting: the value for D3C was -0.048 ± 0.12; that for D3Q was -0.004 ± 0.18; that for G42M was 0.096 ± 0.067. The same measure, in the same setting: the value for G42I was 0.193 ± 0.21; that for G42Y was 0.067 ± 0.082; that for L7G was 0.086 ± 0.049. On the same count and under the same terms, the value for N17M was -0.043 ± 0.089; that for P14W was -0.496 ± 0.17; that for P14I was -0.028 ± 0.078. On to P14V, for which the abundance fitness was 0.07 ± 0.05. On the same count and under the same terms, the value for C26L was -1.03 ± 0.13.

In the case of C26M, the abundance fitness is -0.926 ± 0.14. Still for that read-out and setting: the value for C9N was -1.01 ± 0.31. As for C34G, the abundance fitness was -0.726 ± 0.28. On the same count and under the same terms, the value for C34E was -0.608 ± 0.12. Same read-out and setting: the value for C34A was -0.68 ± 0.12; that for I21K was -0.04 ± 0.091. Still for that read-out and setting: the value for F19R was -0.145 ± 0.062; that for F19E was -0.291 ± 0.14. For the variant F19N, the abundance fitness was -0.341 ± 0.23.

For G1I, the abundance fitness was found to be 0.16 ± 0.14.

Take G1D: the abundance fitness came out at 0.181 ± 0.056. The same measure, in the same setting: under R43D stands -0.292 ± 0.2; under R43C, 0.188 ± 0.13; under R43H, 0.154 ± 0.18.

With R43S, the abundance fitness came to 0.114 ± 0.059. Same read-out and setting: under D51S stands 0.07 ± 0.074. Still for that read-out and setting: under D51W stands -0.612 ± 0.22; under E46G, -0.089 ± 0.087. As for M20L, the abundance fitness is -0.037 ± 0.061. For M20C, the abundance fitness is -0.209 ± 0.1. Still for that read-out and setting: under Y2L stands 0.342 ± 0.06; under Y2C, 0.039 ± 0.098. Same read-out and setting: the value for Q13G was -0.233 ± 0.097; that for Q13H was -0.159 ± 0.2; that for Q13P was -0.692 ± 0.17. Same read-out and setting: under E27L stands -0.107 ± 0.05; under E27I, -0.158 ± 0.072. As to E27C, the abundance fitness is -0.237 ± 0.12. The same measure, in the same setting: under G32Q stands -0.054 ± 0.084; under G32N, -0.179 ± 0.1. Still for that read-out and setting: the value for G32R was 0.026 ± 0.05; that for D24Y was -0.073 ± 0.077; that for D24N was 0.196 ± 0.056. Turning to D24S, the abundance fitness was -0.092 ± 0.068. Turning to R41I, the abundance fitness was -0.157 ± 0.13. Same read-out and setting: the value for R41Q was -0.193 ± 0.24.

As for R41F, the abundance fitness was -0.133 ± 0.15. The same measure, in the same setting: the value for R41T was -0.099 ± 0.094; that for R41G was 0.037 ± 0.058.

Turning to R41A, the abundance fitness is 0.075 ± 0.082. Still for that read-out and setting: under C54G stands -1.15 ± 0.18; under I10S, 0.018 ± 0.06. Same read-out and setting: under I10D stands -0.418 ± 0.25. Consider E50F, for which the abundance fitness was -0.019 ± 0.21.

In the case of E50T, the abundance fitness was 0.037 ± 0.14. On the same count and under the same terms, under E50C stands -0.461 ± 0.17.

Regarding C23Q, the abundance fitness is -0.821 ± 0.13. As for W29H, the abundance fitness is -0.02 ± 0.12. Still for that read-out and setting: the value for W29N was 0.224 ± 0.14. The same measure, in the same setting: under W29K stands 0.2 ± 0.12; under I59N, 0.329 ± 0.27; under I59S, -0.015 ± 0.21. On the same count and under the same terms, under I59K stands 0.424 ± 0.21; under R12I, -0.48 ± 0.14; under R12Q, -0.186 ± 0.093. For the variant R12M, the abundance fitness was -0.305 ± 0.092. On the same count and under the same terms, under N16I stands -0.109 ± 0.1; under N16Q, 0.027 ± 0.12.

Take Y52K: the abundance fitness is -0.181 ± 0.12.

Regarding N5L, the abundance fitness is -0.331 ± 0.084. Still for that read-out and setting: the value for N5E was -0.184 ± 0.1.

On to N5D, for which the abundance fitness worked out at 0.004 ± 0.072. The same measure, in the same setting: under H31E stands -0.923 ± 0.22. The same measure, in the same setting: under H31Y stands -0.732 ± 0.17; under H31R, -0.584 ± 0.1; under L45H, 0.152 ± 0.091. On the same count and under the same terms, under L45P stands -0.014 ± 0.094; under L45S, 0.033 ± 0.07. In the case of C22N, the abundance fitness is 0.029 ± 0.18. On the same count and under the same terms, under C22A stands 0.116 ± 0.09; under C22W, 0.08 ± 0.074. As to C22V, the abundance fitness turned out to be 0.269 ± 0.066. With Y8T, the abundance fitness stood at 0.264 ± 0.1. The same measure, in the same setting: under Y8N stands 0.192 ± 0.088. The same measure, in the same setting: under Y8M stands 0.07 ± 0.079. Turning to Y8P, the abundance fitness came out at 0.059 ± 0.075. On the same count and under the same terms, the value for Y8E was 0.038 ± 0.12.

The variants in the next series derive from B2. Described as above. The following applies: Homo sapiens.
Take K3D: the abundance fitness amounted to 0.122 ± 0.054. The same measure, in the same setting: the value for K3A was -0.19 ± 0.059; that for K3L was -0.181 ± 0.094. On the same count and under the same terms, the value for K3P was -0.1 ± 0.11; that for K3C was -0.06 ± 0.086. Still for that read-out and setting: the value for K3F was -0.095 ± 0.097. As for K3G, the abundance fitness is -0.358 ± 0.083. Still for that read-out and setting: the value for K3N was -0.196 ± 0.21. On the same count and under the same terms, the value for K3M was -0.171 ± 0.067. Take K3E: the abundance fitness is -0.083 ± 0.11. The same measure, in the same setting: the value for K3I was -0.17 ± 0.21. The same measure, in the same setting: under F2K stands 0.247 ± 0.11.

For F2G, the abundance fitness was -0.017 ± 0.051.

Consider F2V, for which the abundance fitness was -0.255 ± 0.063. For F2N, the abundance fitness turned out to be 0.333 ± 0.36.

As to F2M, the abundance fitness was 0.192 ± 0.093.

On to F2L, for which the abundance fitness is -0.023 ± 0.069. Still for that read-out and setting: under F2P stands -0.383 ± 0.11; under F2H, -0.013 ± 0.11; under F2I, 0.179 ± 0.14. For the variant F2C, the abundance fitness amounted to 0.025 ± 0.067. Same read-out and setting: the value for F2R was -0.407 ± 0.088; that for F2D was 0.05 ± 0.091; that for F2S was 0.256 ± 0.042. On the same count and under the same terms, the value for F2Q was -0.182 ± 0.09; that for F2A was -0.111 ± 0.043.

For the variant F2W, the abundance fitness is -0.369 ± 0.046. Same read-out and setting: under F2Y stands -0.11 ± 0.14; under F2T, 0.196 ± 0.081; under F2E, 0.102 ± 0.094. Same read-out and setting: under C1F stands 0.095 ± 0.31. Take C1S: the abundance fitness was 0.116 ± 0.18. Consider C1G, for which the abundance fitness was found to be 0 ± 0.27.
